# Measured values from US20260015434A1, “ANTIBODY MATERIALS AND METHODS TARGETING MICROBIAL POLYSACCHARIDES” (priority 2022, published 2026).
# Positions count from the first letter of the chain named. In names and notes the source's numbering stands.
# B1: TG10 W38A: TG10 HC W38A (SEQ ID NO: 47) with TG10 LC (SEQ ID NO: 12) (antibody, V domains shown)
# VH: EVQLVESGGGLVQPGGSLRLSCAVSGFPFSSYAMSWVRQAPGKGLEWVANIKEDGSEKYYVDSVKGRFTISRDNAKNSLYLQMNSLRAEDTAVYYCATDPDVGLSDSWGQGTLVTVSS
# VL: EIVLTQSPGTLSLSPGDRATHSCRASQSVSRSYLAWYQQKPGQTPRLFIYGASNRATGIPDRFSGSGSGTYFTLTISRLEPEDFAVYYCQQYDSAPDTFGQGTRLEIK
# modifications: Site directed mutatation of TG10 HC Variable Region; TG10 Light Chain Variable Region
# B2: TG10 D107A: TG10 HC D107A (SEQ ID NO: 41) with TG10 LC (SEQ ID NO: 12) (antibody, V domains shown)
# VH: B1 VH with A33W, D99A
# VL: B1 VL
# modifications: Site directed mutation of TG10 HC Variable Region; TG10 Light Chain Variable Region
# B3: TG10 D109K: TG10 HC D109K (SEQ ID NO: 48) with TG10 LC (SEQ ID NO: 12) (antibody, V domains shown)
# VH: B1 VH with A33W, D101K
# VL: B1 VL
# modifications: Site directed mutatation of TG10 HC Variable Region; TG10 Light Chain Variable Region
# B4: TG10 LC Y38A: TG10 HC (SEQ ID NO: 3) with TG10 LC Y38A (SEQ ID NO: 43) (antibody, V domains shown)
# VH: B1 VH with A33W
# VL: EIVLTQSPGTLSLSPGDRATHSCRASQSVSRSALAWYQQKPGQTPRLFIYGASNRATGIPDRFSGSGSGTYFTLTISRLEPEDFAVYYCQQYDSAPDTFGQGTRLEIKLC
# modifications: TG10 Heavy Chain Variable Region; Site directed mutation of TG10 LC Variable Region
# B5: TG10 D109A: TG10 HC D109A (SEQ ID NO: 42) with TG10 LC (SEQ ID NO: 12) (antibody, V domains shown)
# VH: B1 VH with A33W, D101A
# VL: B1 VL
# modifications: Site directed mutatation of TG10 HC Variable Region; TG10 Light Chain Variable Region
# B6: TG10 E57A: TG10 HC E57A (SEQ ID NO: 37) with TG10 LC (SEQ ID NO: 12) (antibody, V domains shown)
# VH: B1 VH with A33W, E53A
# VL: B1 VL
# modifications: Site directed mutation of TG10 HC Variable Region; TG10 Light Chain Variable Region
# B7: ADI-45379: Original clone from screen; HC SEQ ID NO: 1, LC SEQ ID NO: 2 (antibody, listed as Homo sapiens, V domains shown)
# VH: B1 VH with V5L, A33W
# VL: B1 VL with I2T, V3T, G9A
# B8: TG10 Y37A: TG10 HC Y37A (SEQ ID NO: 31) with TG10 LC (SEQ ID NO: 12) (antibody, V domains shown)
# VH: B1 VH with Y32A, A33W
# VL: B1 VL
# modifications: Site directed mutation of TG10 HC Variable Region; TG10 Light Chain Variable Region
# B9: TG10 D116A: TG10 HC D116A (SEQ ID NO: 34) with TG10 LC (SEQ ID NO: 12) (antibody, V domains shown)
# VH: B1 VH with A33W, D106A
# VL: B1 VL
# modifications: Site directed mutation of TG10 HC Variable Region; TG10 Light Chain Variable Region
# B10: TG10 P108A: TG10 HC P108A (SEQ ID NO: 36) with TG10 LC (SEQ ID NO: 12) (antibody, V domains shown)
# VH: B1 VH with A33W, P100A
# VL: B1 VL
# modifications: Site directed mutation of TG10 HC Variable Region; TG10 Light Chain Variable Region
# B11: TG10 V110R: TG10 HC V110R (SEQ ID NO: 39) with TG10 LC (SEQ ID NO: 12) (antibody, V domains shown)
# VH: B1 VH with A33W, V102R
# VL: B1 VL
# modifications: Site directed mutation of TG10 HC Variable Region; TG10 Light Chain Variable Region
# B12: TG10 LC Y55A: TG10 HC (SEQ ID NO: 3) with TG10 LC Y55A (SEQ ID NO: 40) (antibody, V domains shown)
# VH: B1 VH with A33W
# VL: B1 VL with Y50A
# modifications: TG10 Heavy Chain Variable Region; Site directed mutation of TG10 LC Variable Region
# B13: TG10 Y66A: TG10 HC Y66A (SEQ ID NO: 38) with TG10 LC (SEQ ID NO: 12) (antibody, V domains shown)
# VH: B1 VH with A33W, Y59A
# VL: B1 VL
# modifications: Site directed mutation of TG10 HC Variable Region; TG10 Light Chain Variable Region
# B14: 120 × TG: 1467120 HC (SEQ ID NO: 45) with TG10 LC (SEQ ID NO: 12) (antibody, V domains shown)
# VH: B1 VH with E1Q, V24A, P28T, A33W, E53Q, T98R, D101E, V102G, S105P, S107Y
# VL: B1 VL
# modifications: Based on an antibody sequence.; TG10 Light Chain Variable Region
# B15: 285 × TG: 4488285 HC (SEQ ID NO: 46) with TG10 LC (SEQ ID NO: 12) (antibody, V domains shown)
# VH: B1 VH with V24A, P28T, A33W, E53Q, T98R, D101Y, V102M, S105I, S107Y
# VL: B1 VL
# modifications: Based on an antibody sequence.; TG10 Light Chain Variable Region
# B16: 729 × TG: 15729 HC (SEQ ID NO: 44) with TG10 LC (SEQ ID NO: 12) (antibody, V domains shown)
# VH: B1 VH with V24A, P28T, A33W, E53Q, T98R, V102G, G103R, L104I, S105F, S107Y
# VL: B1 VL
# modifications: Based on an antibody sequence.; TG10 Light Chain Variable Region
# System: PNAG conjugates on the array (dPNAG, PNAG and intermediate levels of deacetylation)
# Assay: Neoglycoprotein (glycan) microarray binding, 816-component array
# Settings: single point mutations
# Experimental: (§1) Neoglycoprotein (NGP) microarray fabrication was performed as follows. Several NGP microarrays were constructed as previously described. Two large arrays (8 duplicate arrays per slide) composed of 815 and 870 neoglycoproteins, glycoproteins, glycopeptide conjugates, and controls were constructed and used for the experiments in this report. Additionally, a PNAG-focused array (16 duplicates per slide) with 49 array components was fabricated and used to determine apparent KD values. Array component parent stocks were diluted to 125-200 μg/mL into print buffer (1×PBS buffer with 2.5% (v/v) glycerol, 0.0005% (v/v) Triton-X 100, 0.0005 μg/mL soluble print dye 0.05 μg/mL Atto 532 (Sigma 06699). Formulated components were printed in duplicate onto 2D-Epoxy functionalized glass slides (Poly-An #104-00-221) or SuperEpoxy 2 microarray slides (ArrayIt) using an Arrayit NanoPrint LM60 arrayer at 60% humidity. Following the print, slides were scanned in a microarray fluorescence scanner (Innopsys, InnoScan 1100 AL) to validate that array components were successfully deposited onto the slide surface. Binding profiles for a representative set of lectins and antibodies were used as QC for each printed microarray batch. The printed NGP microarrays were stored under vacuum at −20° C.
# (§2) Antibody selectivity and apparent KD were determined using a NGP microarray. A pre-assay scan was performed to control for missing features. Selectivity and affinity of most mAbs were measured on the full array. A focused array was used to acquire an apparent KD measurement. A slide module (8 well for full array and 16-well for focused array) was mounted onto each slide and blocking buffer (3% BSA in PBS, pH 7.4) was applied to each well of the array. Blocking was performed overnight at 4° C. mAbs were serial diluted in binding buffer (1% BSA in PBST, pH 7.4). Following the block, wells were washed 4× with wash buffer (PBST, PBS with 0.05% tween-20). Primary mAb incubation was performed for 2.5 hours at 37° C. The wells were washed 5× with wash buffer. A CY3-labeled secondary antibody specific for the Fc portion of human IgG was diluted 500 fold into binding buffer and added to each array well (Jackson ImmunoResearch, 109-165-098). Secondary mAb incubation was performed for 1.5 hours at 37° C. Wells were washed 5× with wash buffer. Slides were removed from the slide module and submerged in wash buffer for 5 minutes. Washed slides were dried by centrifugation @ 1000×g in a centrifuge quipped with a swing bucket rotor. Fluorescent scans were obtained at multiple PMT values to maximize dynamic range. Raw data was analyzed using GenePix 7.0 software as previously described. Selectivity profiles and apparent KD curves were plotted in excel and Graphpad Prism. Apparent Kos were determined using one-site specific binding algorithm in Graphpad Prism.
row,Molecule,function of TG10 variant (binding to PNAG conjugates on the array)
1,B1,functionally dead
2,B2,functionally dead
3,B3,functionally dead
4,B4,functionally dead

# System: PNAG 0 (fully deacetylated glucosamine pentasaccharide conjugate)
# Assay: Glycan microarray binding / apparent KD
# Settings: fully deacetylated PNAG conjugate PNAG 0
# Experimental: as §1, §2
row,Molecule,effect of single point mutation on binding between TG10 and PNAG 0
1,B1,completely removed binding
2,B2,completely removed binding
3,B3,completely removed binding
4,B4,completely removed binding
5,B5,greatly reduce
6,B6,greatly reduce

# System: PNAG conjugates on the array (dPNAG, PNAG and intermediate levels of deacetylation)
# Assay: Neoglycoprotein (glycan) microarray binding, 816-component array
# Settings: ability to bind both dPNAG and PNAG and intermediate levels of deacetylation
row,Molecule,PNAG Binding on Array
1,B1,No
2,B3,No
3,B6,Yes
4,B7,Yes
5,B8,Yes
6,B9,Yes
7,B10,Yes
8,B11,Yes
9,B12,Yes
10,B13,Yes
11,B14,No
12,B15,No
13,B16,No
